± gives the standard deviation of the averaged measurements.
Assay: total protein half-life in vivo (active degradation + dilution); higher = more stable protein
[1] = E. coli NCM3722 delta-clpP delta-lon delta-hslV, growth: N-lim chemostat, doubling time 6 h
[2] = E. coli NCM3722 delta-clpP, growth: N-lim chemostat, doubling time 6 h
[3] = E. coli NCM3722 delta-hslV, growth: N-lim chemostat, doubling time 6 h
[4] = E. coli NCM3722 delta-lon, growth: N-lim chemostat, doubling time 6 h
[5] = E. coli NCM3722 delta-smpB, growth: N-lim chemostat, doubling time 6 h
[6] = wild type E. coli NCM3722, growth: C-lim chemostat, doubling time 3 h
[7] = wild type E. coli NCM3722, growth: C-lim chemostat, doubling time 6 h
[8] = wild type E. coli NCM3722, growth: C-lim chemostat, doubling time 12 h
[9] = wild type E. coli NCM3722, growth: N-lim chemostat, doubling time 6 h
[10] = wild type E. coli NCM3722, growth: N-lim chemostat, doubling time 12 h
[11] = wild type E. coli NCM3722, growth: P-lim chemostat, doubling time 12 h
[12] = wild type E. coli NCM3722, growth: P-lim chemostat, doubling time 6 h

Row | Sequence | total protein half-life in vivo [1] [h] | total protein half-life in vivo [2] [h] | total protein half-life in vivo [3] [h] | total protein half-life in vivo [4] [h] | total protein half-life in vivo [5] [h] | total protein half-life in vivo [6] [h] | total protein half-life in vivo [7] [h] | total protein half-life in vivo [8] [h] | total protein half-life in vivo [9] [h] | total protein half-life in vivo [10] [h] | total protein half-life in vivo [11] [h] | total protein half-life in vivo [12] [h]
1 | MKTNIKVFTSTGELTTLGRELGKGGEGAVYDIEEFVDSVAKIYHTPPPALKQDKLAFMAATADAQLLNYVAWPQATLHGGRGGKVIGFMMPKVSGKEPIHMIYSPAHRRQSYPHCAWDFLLYVARNIASSFATVHEHGHVVGDVNQNSFMVGRDSKVVLIDSDSFQINANGTLHLCEVGVSHFTPPELQTLPSFVGFERTENHDNFGLALLIFHVLFGGRHPYSGVPLISDAGNALETDITHFRYAYASDNQRRGLKPPPRSIPLSMLPSDVEAMFQQAFTESGVATGRPTAKAWVAALDSLRQQLKKCIVSAMHVYPAHLTDCPWCALDNQGVIYFIDLGEEVITTGGNFVLAKVWAMVMASVAPPALQLPLPDHFQPTGRPLPLGLLRREYIILLEIALSALSLLLCGLQAEPRYIILVPVLAAIWIIGSLTSKAYKAEVQQRREAFNRAKMDYDHLVRQIQQVGGLEGFIAKRTMLEKMKDEILGLPEEEKRALAALHDTARERQKQKFLEGFFIDVASIPGVGPARKAALRSFGIETAADVTRRGVKQVKGFGDHLTQAVIDWKASCERRFVFRPNEAITPADRQAVMAKMTAKRHRLESALTVGATELQRFRLHAPARTMPLMEPLRQAAEKLAQAQADLSRC | 4.54 | 4.86 |  |  |  |  |  |  |  |  |  | 
2 | MKQDLARIEQFLDALWLEKNLAENTLNAYRRDLSMMVEWLHHRGLTLATAQSDDLQALLAERLEGGYKATSSARLLSAVRRLFQYLYREKFREDDPSAHLASPKLPQRLPKDLSEAQVERLLQAPLIDQPLELRDKAMLEVLYATGLRVSELVGLTMSDISLRQGVVRVIGKGNKERLVPLGEEAVYWLETYLEHGRPWLLNGVSIDVLFPSQRAQQMTRQTFWHRIKHYAVLAGIDSEKLSPHVLRHAFATHLLNHGADLRVVQMLLGHSDLSTTQIYTHVATERLRQLHQQHHPRA [P0A8P8] | 5.75 ± 1.2 | 2.02 ± 0.045 | 2.06 | 4.89 ± 0.092 | 2.04 ± 0.034 | 1.74 ± 0.27 | 3.04 ± 0.085 | 4.08 ± 0.66 | 2.31 ± 0.2 | 3.34 ± 0.29 | 2.81 | 
3 | MARKTKQEAQETRQHILDVALRLFSQQGVSSTSLGEIAKAAGVTRGAIYWHFKDKSDLFSEIWELSESNIGELELEYQAKFPGDPLSVLREILIHVLESTVTEERRRLLMEIIFHKCEFVGEMAVVQQAQRNLCLESYDRIEQTLKHCIEAKMLPADLMTRRAAIIMRGYISGLMENWLFAPQSFDLKKEARDYVAILLEMYLLCPTLRNPATNE [P0ACS9] | 5.34 ± 0.52 |  | 6.2 | 5.24 | 5.82 ± 1.9 |  | 5.61 | 10.8 ± 0.63 | 5.74 | 11.6 | 7.48 | 4.88
4 | MAKVLVLYYSMYGHIETMARAVAEGASKVDGAEVVVKRVPETMPPQLFEKAGGKTQTAPVATPQELADYDAIIFGTPTRFGNMSGQMRTFLDQTGGLWASGALYGKLASVFSSTGTGGGQEQTITSTWTTLAHHGMVIVPIGYAAQELFDVSQVRGGTPYGATTIAGGDGSRQPSQEELSIARYQGEYVAGLAVKLNG [P0A8G6] | 5.48 ± 0.11 | 5.53 ± 0.88 | 5.48 ± 0.15 | 5.7 ± 0.49 | 4.89 ± 0.052 | 3.227 ± 0.018 | 5.98 ± 0.084 | 11.1 ± 1.1 | 5.31 ± 0.38 | 9.99 ± 1.1 | 11.7 ± 0.32 | 5.69 ± 0.29
5 | MKLSTCCAALLLALASPAVLAAPGSCERIQSDISQRIINNGVPESSFTLSIVPNDQVDQPDSQVVGHCANDTHKILYTRTTSGNVSAPAQSSQDGAPAEPQ |  | 6.13 |  | 6.79 | 4.61 | 3.25 | 6.33 |  | 5.52 | 11.6 ± 1.9 | > 16 | 5.94 ± 0.1
6 | MYYGFDIGGTKIALGVFDSGRQLQWEKRVPTPRDSYDAFLDAVCELVAEADQRFGCKGSVGIGIPGMPETEDGTLYAANVPAASGKPLRADLSARLDRDVRLDNDANCFALSEAWDDEFTQYPLVMGLILGTGVGGGLIFNGKPITGKSYITGEFGHMRLPVDALTMMGLDFPLRRCGCGQHGCIENYLSGRGFAWLYQHYYHQPLQAPEIIALYDQGDEQARAHVERYLDLLAVCLGNILTIVDPDLVVIGGGLSNFPAITTQLADRLPRHLLPVARVPRIERARHGDAGGMRGAAFLHLTD | 4.42 ± 0.85 |  | 3.76 ± 0.45 | 4.37 ± 0.18 | 4.06 ± 0.31 | 2.86 ± 0.4 | 4.98 ± 0.17 | 9.97 ± 0.28 | 3.9761 ± 0.0021 | 6.67 ± 1.1 | 11.7 ± 0.2 | 6.09 ± 0.9
7 | MHADTATRQHWMSVLAHSQPAELAARLNALNITADYEVIRAAETGLVQIQARMGGTGERFFAGDATLTRAAVRLTDGTLGYSWVQGRDKQHAERCALIDALMQQSRHFQNLSETLIAPLDADRMARIAARQAEVNASRVDFFTMVRGDNA |  |  |  |  |  |  |  |  |  |  | 1.64 ± 0.035 | 1.11 ± 1.1

From the supplement of paper PMC11246515
